In the supplement of paper PMC10567573:

B1: HDAC6 (parent)
chain: YVHHQALLDVKNIAHQNKFGEDMP

Variants of: B1
Experiment: protein stability index of a GFP-peptide fusion (GPS, HEK-293T) (PSI 1-6); higher = more stable
Conditions: c terminus: a fixed tail appended
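Further: lentivirally expressed fusions sorted by FACS into six bins by GFP to DsRed ratio, PSI derived from sequencing read proportions per bin multiplied by bin number.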

Point of comparison: YVHHQAVLDVKNIAHQNKFGEDMP [L7V], protein stability index 2.21. Against it:
- YVHHQALLDSKNIAHQNKFGEDMP [V10S] — lower, 1.84
- YVHHQALLDCKNIAHQNKFGEDMP [V10C] — lower, 2
- YVHHQALLDQKNIAHQNKFGEDMP [V10Q] — higher, 2.43
- YVHHQALLDPKNIAHQNKFGEDMP [V10P] — lower, 2.15
- YVHHQALLDIKNIAHQNKFGEDMP [V10I] — lower, 1.22
- YVHHQALLDGKNIAHQNKFGEDMP [V10G] — lower, 2.02
- YVHHQALLDFKNIAHQNKFGEDMP [V10F] — lower, 1.98
- YVHHQALIDVKNIAHQNKFGEDMP [L8I] — lower, 1.65
- YVHHQALRDVKNIAHQNKFGEDMP [L8R] — lower, 2.06
- YVHHQALWDVKNIAHQNKFGEDMP [L8W] — lower, 1.81
- YVHHQALDDVKNIAHQNKFGEDMP [L8D] — higher, 2.71
- YVHHQALMDVKNIAHQNKFGEDMP [L8M] — lower, 1.95
- YVHHQALSDVKNIAHQNKFGEDMP [L8S] — higher, 2.39
- YVHHQALADVKNIAHQNKFGEDMP [L8A] — lower, 1.93
- YVHHQALVDVKNIAHQNKFGEDMP [L8V] — lower, 1.75
- YVHHQALGDVKNIAHQNKFGEDMP [L8G] — lower, 2.09
- YVHHQALLDVKNIAHQNKFPEDMP [G20P] — lower, 1.96
- YVHHQALLDVKNIAHQNKFAEDMP [G20A] — lower, 1.99
- YVHHQALLDVKNIAHQNKFSEDMP [G20S] — lower, 1.82
- YVHHQALLDVKNIAHQNKFIEDMP [G20I] — lower, 1.88
- YVHHQALLDVKNIAHQNKFTEDMP [G20T] — lower, 1.91
- YVHHQALLDVKNIAHQNKFEEDMP [G20E] — higher, 2.26
- YVHHQALLDVKNIAHQNKFGDDMP [E21D] — lower, 1.97
- YVHHQALLDVKNIAHQNKFGSDMP [E21S] — higher, 2.22
- YVHHQALLDVKNIAHQNKFGADMP [E21A] — lower, 2.01
- YVHHQALLDVKNIAHQNKFGKDMP [E21K] — lower, 1.57
- YVHHQALLDVKNIAHQNKFGCDMP [E21C] — higher, 2.23
- YVHHPALLDVKNIAHQNKFGEDMP [Q5P] — lower, 1.71
- YVHHLALLDVKNIAHQNKFGEDMP [Q5L] — lower, 1.75
- YVHHCALLDVKNIAHQNKFGEDMP [Q5C] — lower, 1.36
- YVHHVALLDVKNIAHQNKFGEDMP [Q5V] — lower, 1.85
- YVHHKALLDVKNIAHQNKFGEDMP [Q5K] — lower, 2.02
- YVHHWALLDVKNIAHQNKFGEDMP [Q5W] — higher, 3.05
- YVHHSALLDVKNIAHQNKFGEDMP [Q5S] — lower, 1.76
- YVHHQALLDVKDIAHQNKFGEDMP [N12D] — lower, 1.67
- YVHHQALLDVKQIAHQNKFGEDMP [N12Q] — lower, 1.57
- YVHHQALLDVKFIAHQNKFGEDMP [N12F] — higher, 2.65
- YVHHQALLDVKPIAHQNKFGEDMP [N12P] — lower, 2.12
- YVHHQALLDVKYIAHQNKFGEDMP [N12Y] — higher, 3.4
- YVHHQALLDVKRIAHQNKFGEDMP [N12R] — higher, 2.36
- YVHHQALLDVKAIAHQNKFGEDMP [N12A] — lower, 2
- YVHHQALLDVKWIAHQNKFGEDMP [N12W] — higher, 2.64
- YVHHQALLDVKTIAHQNKFGEDMP [N12T] — lower, 2.09
- YVHHQALLDVKVIAHQNKFGEDMP [N12V] — lower, 1.54
- YVHHQALLDVKCIAHQNKFGEDMP [N12C] — lower, 1.42
- YVHHQAELDVKNIAHQNKFGEDMP [L7E] — higher, 2.88
- YVHHQAKLDVKNIAHQNKFGEDMP [L7K] — lower, 1.9
- YVHHQAILDVKNIAHQNKFGEDMP [L7I] — lower, 1.83
- YVHHQASLDVKNIAHQNKFGEDMP [L7S] — higher, 2.31
- YVHHQAFLDVKNIAHQNKFGEDMP [L7F] — higher, 2.39
- YVHHQANLDVKNIAHQNKFGEDMP [L7N] — higher, 2.4
- YVHHQAPLDVKNIAHQNKFGEDMP [L7P] — higher, 2.73
- YVHHQATLDVKNIAHQNKFGEDMP [L7T] — lower, 2.18
- YVHHQALLDVKNWAHQNKFGEDMP [I13W] — lower, 2.16
- YVHHQALLDVKNVAHQNKFGEDMP [I13V] — higher, 2.31
- YVHHQALLDVKNCAHQNKFGEDMP [I13C] — lower, 1.81
- YVHHQALLDVKNYAHQNKFGEDMP [I13Y] — lower, 1.95
- YVHHQALLDVKNRAHQNKFGEDMP [I13R] — lower, 1.96
- YVHHQALLDVKNGAHQNKFGEDMP [I13G] — higher, 2.39
- YQHHQALLDVKNIAHQNKFGEDMP [V2Q] — higher, 2.77
- YGHHQALLDVKNIAHQNKFGEDMP [V2G] — higher, 3.43
- YFHHQALLDVKNIAHQNKFGEDMP [V2F] — higher, 2.44
- YTHHQALLDVKNIAHQNKFGEDMP [V2T] — higher, 2.95
- YEHHQALLDVKNIAHQNKFGEDMP [V2E] — higher, 4.55
- YRHHQALLDVKNIAHQNKFGEDMP [V2R] — higher, 3.69
- YPHHQALLDVKNIAHQNKFGEDMP [V2P] — higher, 3
- YIHHQALLDVKNIAHQNKFGEDMP [V2I] — lower, 1.81
- YKHHQALLDVKNIAHQNKFGEDMP [V2K] — higher, 4.15
- YYHHQALLDVKNIAHQNKFGEDMP [V2Y] — higher, 2.98
- YNHHQALLDVKNIAHQNKFGEDMP [V2N] — higher, 4.12
- YMHHQALLDVKNIAHQNKFGEDMP [V2M] — higher, 3.17
- YVHHQALLDVKNIAHQNKVGEDMP [F19V] — lower, 1.83
- YVHHQALLDVKNIAHQNKSGEDMP [F19S] — higher, 2.39
- YVHHQALLDVKNIAHQNKMGEDMP [F19M] — higher, 2.34
- YVHHQALLDVKNIAHQNKAGEDMP [F19A] — higher, 2.51
- YVHHQALLDVKNIAHQNKTGEDMP [F19T] — lower, 2.19
- YVHHQALLDVKNIAHQNKWGEDMP [F19W] — lower, 1.73
- YVHHQALLDVKNIAHQNKCGEDMP [F19C] — lower, 1.78
- YVHHQALLDVKNIAHQNSFGEDMP [K18S] — lower, 1.49
- YVHHQALLDVKNIAHQNRFGEDMP [K18R] — higher, 2.88
- YVHHQALLDVKNIAHQNCFGEDMP [K18C] — lower, 1.37
- YVHHQALLDVKNIAHQNHFGEDMP [K18H] — lower, 1.78
- YVHHQALLDVKNIAHQNIFGEDMP [K18I] — lower, 2.15
- YVHHQALLDVKNIAHQNTFGEDMP [K18T] — higher, 2.43
- YVHHQALLDVKNIYHQNKFGEDMP [A14Y] — lower, 1.74
- YVHHQALLDVKNIGHQNKFGEDMP [A14G] — lower, 1.76
- YVHHQALLDVKNIRHQNKFGEDMP [A14R] — lower, 2.04
- YVHHQALLDVKNIQHQNKFGEDMP [A14Q] — the same, 2.21
- YVHHQALLDVKNINHQNKFGEDMP [A14N] — higher, 2.26
- YVHHQALLDVKNIPHQNKFGEDMP [A14P] — higher, 2.42
- YVHHQALLDVKNIHHQNKFGEDMP [A14H] — lower, 1.74
- YVHHQALLDVKNIAHQNKFGEDCP [M23C] — lower, 1.95
- YVHHQALLDVKNIAHQNKFGEDRP [M23R] — lower, 1.97
